Test results from patent US20030211540.

System: T1, PKC inhibitor peptide 19-31 (Arg-Phe-Ala-Arg-Lys-Gly-Ala-Leu-Arg-Gin-Lys-Asn-Val)
T1 sequence: RFARKGALRQKNV

Protein kinase C
insulin-stimulated DNA synthesis (BrDU incorporation) under high glucose after microinjection of the peptide: partially reversed inhibition of DNA synthesis
